The record followed here is publication PMC2894447.

The Kd is the concentration at which binding is half-saturated. Read a high Kd as a looser complex. By stoichiometry N is commonly meant the number of molecules, sites or subunits per partner or assembly.

The target in test [1] is Rabbit skeletal muscle actin, monomeric (G-actin), 100% pyrene labeled (rabbit) (UniProt P68135). Description: other fluorescence titration.
Test [2] deals with APC-B-ΔN4. Nature of the test: SEC + other: sucrose gradient sedimentation velocity.

“APC-B, the C-terminal Basic domain of adenomatous polyposis coli protein (domain or fragment)” gave a Kd in test [1] of 17.3 nM. This lies in the double-digit nanomolar range.

B1: APC-B-ΔN4 (domain or fragment)
chain: ASTKSSGSGKMSYTSPGRQMSQQNLTKQTGLSKNASSIPRSESASKGLNQMNNGNGANKKVELSRMSSTKSSGSESDRSERPVLVRQSTFIKEAPSPTLRRKLEESASFESLSPSSRPASPTRSQAQTPVLSPSLPDMSLSTHSSVQAGGWRKLPPNLSPTIEYNDGRPAKRHDIARSHSESPSRLPINRSGTWKREHSKHSSSLPRVSTWRRTGSSSSILSASSESSEKAKSEDEKHVNSISGTKQSKENQVSAKGTWRKIKENEFSPTNSTSQTVSSGATNGAESKTLIYQMAPAVSKTEDVWVRIEDCPINNPRSGRS
modifications: not checked
Consider B1, for which the stoichiometry N in test [2] came to 1.97.
